Patent US20230303681A1 (published 2023)

Columns and labels:
human TMEM106B [1] = biological target: T1, human TMEM106B (human, UniProt Q9NUM4 2-274); experiment: FACS A549
T1 construct: Full-length, on transiently transfected HEK293 cells, or natively expressed on HeLa, U251 and A549 cells; also called huTMEM106B; huTMEM

human TMEM106B [2] = biological target: T1, human TMEM106B; experiment: FACS HeLa;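 further: flow cytometry of cells incubated with hybridoma supernatant or purified antibody at 10 µg/ml for 1 h on ice, propidium iodide–positive dead cells gated out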
human TMEM106B [3] = biological target: T1, human TMEM106B; experiment: FACS U251;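 further: flow cytometry of cells exposed to antibody (purified at 10 µg/mL, or hybridoma supernatant) for 1 h on ice, with propidium iodide-positive dead cells gated out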
GST (Pierce) = biological target: T2, GST (Pierce) (UniProt P08515 1-218 = GST, limits assumed); experiment: ELISA, coated GST;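 further: ELISA on plates coated with GST alone at 1-10 µg/ml, antibodies applied at 100-1000x dilution, bound antibody detected by peroxidase substrate colour after acid stop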
T2 construct: control for the GST part of the fusion protein; also called GST protein; Glutathione-S-transferase

human TMEM106B [4] = biological target: T1, human TMEM106B; experiment: FACS A549, 1 ug/ml
Experimental: (§1) Purified anti-TMEM106B antibodies were evaluated for their binding affinity to various TMEM106B-expressing cell lines including HEK293 transiently transfected with human/cyno/mouse TMEM106B, as well as HeLa cells and A549 cells. Antibodies tested for this experiment were mouse IgGs purified from hybridoma supernatant. Affinity binding to cells was determined as follows. Briefly, 1x10^5 cells were aliquoted per well in 96-well round bottom plates and incubated with 50 µL of purified anti-TMEM106B antibody at various concentrations (10x dilutions starting at 10 µg/ml) in FACS buffer (PBS + 2% FBS + 1 mM EDTA). […] Sorting was performed on a iQue (Intellicyt), with sort gates drawn to exclude dead (propidium iodide +) cells. Binding data was analyzed using median fluorescent intensity (MFI) and graphed in Prism. Values presented are MFI.

human TMEM106B [5] = biological target: T1, human TMEM106B; experiment: FACS A549, 10 ug/ml
Experimental: as §1

human TMEM106B [6] = biological target: T1, human TMEM106B; experiment: FACS, HEK293 transfectants;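 on fold over negative controls: hybridoma supernatants incubated 30 min on ice with human TMEM106B-expressing HEK293 cells, binding read as anti-mouse-APC median fluorescence on live cells, relative to secondary-antibody-only wells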;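 on fold-change over parental HEK293: flow cytometry binding of hybridoma supernatants to HEK293 cells transiently expressing human, cyno or mouse TMEM106B, read as anti-mouse-APC median fluorescence, live cells only, 30 min on ice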
human TMEM106B [7] = biological target: T1, human TMEM106B; experiment: FACS HEK+huTMEM, 10 ug/ml;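 further: purified mouse IgG antibodies at 10 µg/ml bound to HEK293 cells transiently expressing human TMEM106B, measured by flow cytometry as median fluorescence intensity of propidium iodide negative live cells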
human TMEM106B [8] = biological target: T1, human TMEM106B; experiment: FACS, HEK293 transfectants; remark: listed apart in the source;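 on fold over negative controls: hybridoma supernatants incubated 30 min on ice with human TMEM106B-expressing HEK293 cells, binding read as anti-mouse-APC median fluorescence on live cells, relative to secondary-antibody-only wells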;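 on fold-change over parental HEK293: flow cytometry binding of hybridoma supernatants to HEK293 cells transiently expressing human, cyno or mouse TMEM106B, read as anti-mouse-APC median fluorescence, live cells only, 30 min on ice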
[9] = biological target: T3, cynomolgus (cyno) TMEM106B (cynomolgus, UniProt Q9NUM4 2-274 (human entry)); experiment: FACS, HEK293 transfectants;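 further: flow cytometry binding of hybridoma supernatants to HEK293 cells transiently expressing human, cyno or mouse TMEM106B, read as anti-mouse-APC median fluorescence, live cells only, 30 min on ice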
T3 construct: on transiently transfected HEK293 cells

human TMEM106B [10] = biological target: T1, human TMEM106B; experiment: FACS HEK+huTMEM, 0.1 ug/ml;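 further: flow cytometry binding of purified mouse IgG antibodies to HEK293 cells transiently expressing TMEM106B, read as median fluorescence intensity with propidium iodide positive dead cells gated out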
Experimental: as §1

human TMEM106B [11] = biological target: T1, human TMEM106B; experiment: FACS HEK+huTMEM, 1.0 ug/ml
human TMEM106B [12] = biological target: T1, human TMEM106B; experiment: FACS HEK+huTMEM, 0.01 ug/ml
[13] = biological target: T4, GST-fusion human TMEM106B truncated (human); experiment: ELISA, supernatant 100-1000x
T4 construct: also called GST-TMEM106B-truncated protein; GST-TMEM106B (truncated)
Experimental: Briefly, 96-well polystyrene plates were coated with 1-10 µg/ml of recombinant GST-TMEM106B-truncated protein or GST (Pierce) in PBS either at 370 Cfor 1-4 hours or overnight at 4 °C. Coated plates were then blocked with 5% BSA for 1-hour, washed 3×150 µL in TBST (Tris-buffered saline + 0.1% Tween20), and then the antibodies were added at various dilutions (100-1000x) in PBS. After 1-hour incubation (room temperature, with shaking), the plates were washed 3x150 µL in TBST. […] After a final set of washes (3×150µL in TBST), 100 µL of peroxidase substrate was added for 1 minute; the reaction was then quenched with 2N sulfuric acid (100 µL).

B1: anti-TMEM106B antibody TM-4 (antibody, V domains shown)
VH: EVQVQQSGPVLVKPGASVKMSCKASGYTFTDYYMNWVKQSHGKNLEWIGVINPYNGGTSYHQKFKGKATLTVDKSSSTAYMELNSLTSEDSAVYYCARAATVVAGFDYWGQGTTLTVSS
VL: QAVVTQESALTTSPGETVTLTCRSSTGAVTTSNYANWVQEKPDHLFTGLIGGTNNRAPGVPARFSGSLIGDKAALTITGAQTEDEAIYFCVLWYSNHLVFGGGTKLTVL
MFI (human TMEM106B [1]): 916 | MFI (human TMEM106B [2]): 323 | MFI (human TMEM106B [3]): 349 | binding result (GST (Pierce)): no binding | MFI (human TMEM106B [4]): 373 | MFI (human TMEM106B [5]): 443 | fold over negative controls (human TMEM106B [6]): > 2 fold | MFI (human TMEM106B [7]): 846 | fold-change over parental HEK293 (human TMEM106B [8]): 1.13 fold | fold-change over parental HEK293 [9]: 2.08 fold | MFI (human TMEM106B [10]): 304 | MFI (human TMEM106B [11]): 415 | MFI (human TMEM106B [12]): 282 | binding result [13]: no binding
